From FireProtDB (doi:10.1002/prot.24420)
Where “and” joins values, the source holds several entries; their conditions need not be identical. Identical values can stand only once.

B1: D595A|N715A, Q8GRA2 (parent)
chain: MKKTRFPNKLNTLNTQRVLSKNSKRFTVTLVGVFLMIFALVTSMVGAKTVFGLVESSTPNAINPDSSSEYRWYGYESYVRGHPYYKQFRVAHDLRVNLEGSRSYQVYCFNLKKAFPLGSDSSVKKWYKKHDGISTKFEDYAISPRITGDELNQKLRAVMYNGHPQNANGIMEGLEPLNAIRVTQEAVWYYSDNAPISNPDESFKRESESNLVSTSQLSLMRQALKQLIDPNLATKMPKQVPDDFQLSIFESEDKGDKYNKGYQNLLSGGLVPTKPPTPGDPPMPPNQPQTTSVLIRKYAIGDYSKLLEGATLQLTGDNVNSFQARVFSSNDIGERIELSDGTYTLTELNSPAGYSIAEPITFKVEAGKVYTIIDGKQIENPNKEIVEPYSVEAYNDFEEFSVLTTQNYAKFYYAKNKNGSSQVVYCFNADLKSPPDSEDGGKTMTPDFTTGEVKYTHIAGRDLFKYTVKPRDTDPDTFLKHIKKVIEKGYREKGQAIEYSGLTETQLRAATQLAIYYFTDSAELDKDKLKDYHGFGDMNDSTLAVAKILVEYAQDSNPPQLTDLDFFIPNNNKYQSLIGTQWHPEDLVDIIRMEDKKEVIPVTHNLTLRKTVTGLAGDRTKDFHFEIELKNNKQELLSQTVKTDKTNLEFKDGKATINLKHGESLTLQGLPEGYSYLVKETDSEGYKVKVNSQEVANATVSKTGITSDETLAFENNKEPVVPTGVDQKINGYLALIVIAGISLGIWGIHTIRIRKHD

Variants of: B1
Conditions: Streptococcus pyogenes; pH 7.2; Thermal; CD; Potassium phosphate 50mM; structure 2XIC; whole UniProt chain shown
In the case of D595A N715A, the “unfolding enthalpy (van 't Hoff)” value is reported as 62.1 kcal/mol and 71.4 kcal/mol.
With C426A the “change of melting temperature, mutant - wild type (higher = more stable)” value was -1.7 °C and 0.2 °C and the “unfolding enthalpy (van 't Hoff)” value was 113 kcal/mol and 123 kcal/mol.
In the case of D595A, the “unfolding enthalpy (van 't Hoff)” value is reported as 108 kcal/mol and 115 kcal/mol.
With N715A the “unfolding enthalpy (van 't Hoff)” value was 147 kcal/mol and 85.9 kcal/mol.
